Assay results taken from publication PMC5651189.

Biological target: PKA regulatory subunit RIIα (human (endogenous in SK-Br-3)) (UniProt P13861)
Assay: proximity ligation

Chain of PKA regulatory subunit RIIα (human (endogenous in SK-Br-3)) (P13861 whole entry): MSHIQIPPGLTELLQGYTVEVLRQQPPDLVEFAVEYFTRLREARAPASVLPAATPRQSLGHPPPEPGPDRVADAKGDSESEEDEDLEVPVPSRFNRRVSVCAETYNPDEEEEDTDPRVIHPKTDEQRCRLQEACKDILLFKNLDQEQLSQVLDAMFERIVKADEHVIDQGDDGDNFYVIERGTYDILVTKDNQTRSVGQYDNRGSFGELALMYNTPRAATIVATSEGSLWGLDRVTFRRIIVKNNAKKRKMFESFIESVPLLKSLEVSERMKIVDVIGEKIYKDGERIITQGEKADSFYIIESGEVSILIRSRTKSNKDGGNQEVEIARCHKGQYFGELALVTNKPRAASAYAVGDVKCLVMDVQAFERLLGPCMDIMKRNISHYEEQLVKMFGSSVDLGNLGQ

decrease of CICF in SK.tDp^T39A against SK.empty cells: 67%
increase of CICF in SK.tDp against SK.empty cells: 36%
Substance: PKA catalytic subunit (PKAc) (from UniProt P17612 1-351) (enzyme)
